Results: patent US11814435B2, “Therapeutic antibodies and their uses” (PFIZER INC., priority 2015, dated 2023)
Changes are numbered by the printed parent chain.

T1: hBCMA (human BCMA) (Homo sapiens, UniProt Q02223)
T1 sequence (Q02223 1-184): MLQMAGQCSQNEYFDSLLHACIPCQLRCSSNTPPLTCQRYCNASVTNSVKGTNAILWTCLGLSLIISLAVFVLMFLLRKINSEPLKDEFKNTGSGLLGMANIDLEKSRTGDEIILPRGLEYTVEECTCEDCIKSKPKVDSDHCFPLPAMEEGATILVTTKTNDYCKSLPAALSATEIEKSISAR

B1: A02_Rd4_6 nM_C07: anti-BCMA antibody (antibody, V domains shown)
VH: EVQLLESGGGLVQPGGSLRLSCAASGFTFSSYAMNWVRQAPGKGLEWVSAIGGSGGSLPYADSVKGRFTISRDNSKNTLYLQMNSLRAEDTAVYYCARYWPMDSWGQGTLVTVSS
VL: EIVLTQSPGTLSLSPGERATLSCRASQSVSPYYLAWYQQKPGQAPRLLMYDASIRATGIPDRFSGSGSGTDFTLTISRLEPEDFAVYYCQQYERWPLTFGQGTKVEIK
B2: C01_Rd4_0.6 nM_C16: anti-BCMA antibody (antibody, V domains shown)
VH: B1 VH with A33P, N35S
VL: B1 VL with P31S, Y32T, M49I, I54S, T57P, E93S, R94S
B3: C01_Rd4_6 nM_C24: anti-BCMA antibody (antibody, V domains shown)
VH: B1 VH with A33P, N35S
VL: B1 VL with Y32E, M49I, I54S, T57P, E93S, R94V
B4: A02_Rd4_6 nM_C08: anti-BCMA antibody (antibody, V domains shown)
VH: B1 VH with G52L, G53D, L58T, P59Y, D103S, S104P
VL: B1 VL with P31F, Y32L, E93G, R94S
B5: A02_Rd4_0.6 nM_C26: anti-BCMA antibody (antibody, V domains shown)
VH: B1 VH with G52L, G53M, L58T, P59Y, D103S, S104L
VL: B1 VL with R24G, A25P, P31S, Y32S, E93Q, R94S
B6: A02_Rd4_0.6 nM_C13: anti-BCMA antibody (antibody, V domains shown)
VH: B1 VH with G52S, G53D, S57Y, L58R, P59Y, D103S, S104L
VL: B1 VL with P31S, Y32S, L34W, R94S
B7: C01_Rd4_6 nM_C20: anti-BCMA antibody (antibody, V domains shown)
VH: B1 VH with A33P, N35S
VL: B1 VL with Y32L, M49I, I54S, T57P, E93S, R94A, W95F
B8: C01_Rd4_0.6 nM_C27: anti-BCMA antibody (antibody, V domains shown)
VH: B1 VH with A33P, N35S
VL: B1 VL with P31S, Y32T, M49I, I54S, T57P, E93S
B9: C01_Rd4_6 nM_C10: anti-BCMA antibody (antibody, V domains shown)
VH: B1 VH with A33P, N35S
VL: B1 VL with P31S, Y32V, M49I, I54S, T57P, E93S, R94T
B10: A02_Rd4_6 nM_C04: anti-BCMA antibody (antibody, V domains shown)
VH: B1 VH with G52M, G53S, S57P, P59Y, D103A, S104L
VL: B1 VL with P31A, Y32L, E93Q, R94V
B11: A02_Rd4_6 nM_C05: anti-BCMA antibody (antibody, V domains shown)
VH: B1 VH with G52F, G53A, L58T, P59Y, D103T, S104P
VL: B1 VL with P31S, Y32S, E93Q
B12: P5C1_VHVL: anti-BCMA antibody (antibody, V domains shown)
VH: B1 VH with A33P, N35S, L58T, P59Y
VL: B1 VL with P31S, Y32T, M49I, I54S, T57P, E93S, R94T, W95S
B13: C01_Rd4_0.6 nM_C09: anti-BCMA antibody (antibody, V domains shown)
VH: B1 VH with A33P, N35S
VL: B1 VL with P31S, Y32L, Y33F, M49I, I54S, T57P, E93S, R94A
B14: A02_Rd4_6 nM_C10: anti-BCMA antibody (antibody, V domains shown)
VH: B1 VH with G52S, G53D, L58C, P59W, D103T, S104P
VL: B1 VL with S30E, P31M, Y32S, E93A, R94H
B15: C01_Rd4_6 nM_C26: anti-BCMA antibody (antibody, V domains shown)
VH: B1 VH with A33P, N35S
VL: B1 VL with P31A, Y32L, M49I, I54S, T57P, E93S, R94A
B16: A02_Rd4_6 nM_C23: anti-BCMA antibody (antibody, V domains shown)
VH: B1 VH with G52S, G53D, L58G, P59W, D103S, S104L
VL: B1 VL with P31V, Y32E, E93A
B17: A02_Rd4_0.6 nM_C10: anti-BCMA antibody (antibody, V domains shown)
VH: B1 VH with G52S, S54W
VL: B1 VL with P31A, Y32Q, E93Q
B18: A02_Rd4_0.6 nM_C18: anti-BCMA antibody (antibody, V domains shown)
VH: B1 VH with I51V, G52L, G53D, L58T, P59Y, D103S, S104L
VL: B1 VL with P31E, Y32L, E93F, R94G

Biological target: T1, hBCMA (human BCMA)
Assay: Kinetics and affinity of hBCMA/human IgG interactions by SPR (Bio-Rad Proteon XPR36)
Assay type: binding
Settings: human BCMA, 37° C.
In short: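 First, antibodies are immobilized by amine coupling onto a GLC sensor chip at 25° C. Next, hBCMA is titrated from 0.08 to 50 nM in one cycle, each injection lasting two minutes, in BSA-supplemented HBS-T+ at 37° C. or 25° C. Finally, dissociation runs two hours before kinetic-titration fitting.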

Question: Which results are given for B1?
Answer: ka Human: 1.48e+06 M⁻¹ s⁻¹; kd Human: 0.000189 s⁻¹

Question: What does the source list for B2?
Answer: ka Human: 1.55e+07 M⁻¹ s⁻¹; kd Human: 0.0063 s⁻¹

Question: How did the “ka Human” value turn out when B3 was run?
Answer: Its value is 7.47e+06 M⁻¹ s⁻¹.

Question: And the “kd Human” value?
Answer: The value was 0.00348 s⁻¹.

Question: Which Kd does the source give for B4 here?
Answer: The Kd was 0.188 nM.

Question: What about the “ka Human” value of the same molecule?
Answer: The value was 3.92e+06 M⁻¹ s⁻¹.

Question: And the “kd Human” value?
Answer: The value was 0.000738 s⁻¹.

Question: How did the “ka Human” value turn out when B5 was run?
Answer: The value was 7.26e+06 M⁻¹ s⁻¹.

Question: What about the “kd Human” value of the same molecule?
Answer: Its value is 0.000443 s⁻¹.

Question: What does the source list for B6?
Answer: ka Human: 8.53e+06 M⁻¹ s⁻¹; kd Human: 0.000566 s⁻¹

Question: How did the “ka Human” value turn out when B7 was run?
Answer: Its value is 6.02e+06 M⁻¹ s⁻¹.

Question: And the “kd Human” value?
Answer: The value was 0.00276 s⁻¹.

Question: For B8, which “ka Human” value is on record?
Answer: Its value is 1.23e+07 M⁻¹ s⁻¹.

Question: What about the “kd Human” value of the same molecule?
Answer: The value was 0.00374 s⁻¹.

Question: With B9 as the molecule, how does the “ka Human” value read?
Answer: Its value is 1.31e+07 M⁻¹ s⁻¹.

Question: And the “kd Human” value?
Answer: Its value is 0.00212 s⁻¹.

Question: Which results are given for B10?
Answer: Kd: 0.135 nM; ka Human: 4.47e+06 M⁻¹ s⁻¹; kd Human: 0.000603 s⁻¹

Question: Which “ka Human” value does the source give for B11 here?
Answer: Its value is 3.1e+06 M⁻¹ s⁻¹.

Question: What about the “kd Human” value of the same molecule?
Answer: The value was 0.000308 s⁻¹.

Question: What does the source list for B12?
Answer: ka Human: 1.16e+07 M⁻¹ s⁻¹; kd Human: 0.0692 s⁻¹

Question: What does the source list for B13?
Answer: ka Human: 1.51e+07 M⁻¹ s⁻¹; kd Human: 0.00825 s⁻¹

Question: Which “ka Human” value does the source give for B14 here?
Answer: The value was 4.51e+06 M⁻¹ s⁻¹.

Question: What about the “kd Human” value of the same molecule?
Answer: Its value is 0.000315 s⁻¹.

Question: What does the source list for B15?
Answer: ka Human: 1.5e+07 M⁻¹ s⁻¹; kd Human: 0.00136 s⁻¹

Question: For B16, which “ka Human” value is on record?
Answer: The value was 1.22e+07 M⁻¹ s⁻¹.

Question: What about the “kd Human” value of the same molecule?
Answer: Its value is 0.000255 s⁻¹.

Question: B17 was tested. Which “ka Human” value did it give?
Answer: The value was 2.3e+06 M⁻¹ s⁻¹.

Question: What about the “kd Human” value of the same molecule?
Answer: Its value is 0.000296 s⁻¹.

Question: B18 was tested. Which Kd did it give?
Answer: The Kd was 0.048 nM.

Question: And the “ka Human” value?
Answer: Its value is 4.73e+06 M⁻¹ s⁻¹.

Question: And the “kd Human” value?
Answer: Its value is 0.000229 s⁻¹.

Test system: Cyno BCMA
Assay: Kinetics and affinity of cyno BCMA/human IgG interactions by SPR (Bio-Rad Proteon XPR36)
Assay type: binding, cynomolgus
Settings: 37° C.

Question: Which results are given for B1?
Answer: ka Cyno: 691000 M⁻¹ s⁻¹; kd Cyno: 0.000786 s⁻¹

Question: B2 was tested. Which “ka Cyno” value did it give?
Answer: The value was 4.95e+06 M⁻¹ s⁻¹.

Question: And the “kd Cyno” value?
Answer: Its value is 0.00464 s⁻¹.

Question: Which results are given for B3?
Answer: ka Cyno: 3.17e+06 M⁻¹ s⁻¹; kd Cyno: 0.000891 s⁻¹

Question: For B4, which Kd is on record?
Answer: Its Kd is 5.07 nM.

Question: And the “ka Cyno” value?
Answer: Its value is 2.23e+06 M⁻¹ s⁻¹.

Question: What about the “kd Cyno” value of the same molecule?
Answer: The value was 0.0113 s⁻¹.

Question: For B5, which “ka Cyno” value is on record?
Answer: Its value is 2.71e+06 M⁻¹ s⁻¹.

Question: And the “kd Cyno” value?
Answer: The value was 0.00256 s⁻¹.

Question: With B6 as the molecule, how does the “ka Cyno” value read?
Answer: Its value is 2.29e+06 M⁻¹ s⁻¹.

Question: And the “kd Cyno” value?
Answer: Its value is 0.00128 s⁻¹.

Question: How did the “ka Cyno” value turn out when B7 was run?
Answer: Its value is 3.6e+06 M⁻¹ s⁻¹.

Question: And the “kd Cyno” value?
Answer: The value was 0.00625 s⁻¹.

Question: B8 was tested. Which “ka Cyno” value did it give?
Answer: Its value is 3.34e+06 M⁻¹ s⁻¹.

Question: What about the “kd Cyno” value of the same molecule?
Answer: Its value is 0.00285 s⁻¹.

Question: For B9, which “ka Cyno” value is on record?
Answer: The value was 4.44e+06 M⁻¹ s⁻¹.

Question: And the “kd Cyno” value?
Answer: The value was 0.00219 s⁻¹.

Question: B10 was tested. Which Kd did it give?
Answer: The Kd was 0.381 nM.

Question: What about the “ka Cyno” value of the same molecule?
Answer: Its value is 2.18e+06 M⁻¹ s⁻¹.

Question: What about the “kd Cyno” value of the same molecule?
Answer: The value was 0.000831 s⁻¹.

Question: Which results are given for B11?
Answer: ka Cyno: 1.36e+06 M⁻¹ s⁻¹; kd Cyno: 0.00129 s⁻¹

Question: For B12, which “ka Cyno” value is on record?
Answer: The value was 3.53e+06 M⁻¹ s⁻¹.

Question: What about the “kd Cyno” value of the same molecule?
Answer: The value was 0.0538 s⁻¹.

Question: For B13, which “ka Cyno” value is on record?
Answer: The value was 5.28e+06 M⁻¹ s⁻¹.

Question: And the “kd Cyno” value?
Answer: The value was 0.00936 s⁻¹.

Question: With B14 as the molecule, how does the “ka Cyno” value read?
Answer: Its value is 1.9e+06 M⁻¹ s⁻¹.

Question: What about the “kd Cyno” value of the same molecule?
Answer: The value was 0.000898 s⁻¹.

Question: With B15 as the molecule, how does the “ka Cyno” value read?
Answer: Its value is 4.75e+06 M⁻¹ s⁻¹.

Question: What about the “kd Cyno” value of the same molecule?
Answer: The value was 0.00199 s⁻¹.

Question: With B16 as the molecule, how does the “ka Cyno” value read?
Answer: Its value is 2.63e+06 M⁻¹ s⁻¹.

Question: What about the “kd Cyno” value of the same molecule?
Answer: Its value is 0.000414 s⁻¹.

Question: Which results are given for B17?
Answer: ka Cyno: 883000 M⁻¹ s⁻¹; kd Cyno: 0.00163 s⁻¹

Question: Which Kd does the source give for B18 here?
Answer: The Kd was 0.197 nM.

Question: What about the “ka Cyno” value of the same molecule?
Answer: The value was 3.24e+06 M⁻¹ s⁻¹.

Question: And the “kd Cyno” value?
Answer: Its value is 0.000639 s⁻¹.
